Laboratory results reported in patent US20190233495A1 (Sanofi, published 2019).
Blank lines part the entries; values can stand above or below the binder they belong to. Non-standard residues stand in square brackets, D forms with d. Nle = CCCC[C@H](N)C(=O)O; Aib = CC(C)(N)C(=O)O

Target: T1, RXFP1 receptor (UniProt Q9HBX9 1-757, limits assumed)
T1 sequence (looked up): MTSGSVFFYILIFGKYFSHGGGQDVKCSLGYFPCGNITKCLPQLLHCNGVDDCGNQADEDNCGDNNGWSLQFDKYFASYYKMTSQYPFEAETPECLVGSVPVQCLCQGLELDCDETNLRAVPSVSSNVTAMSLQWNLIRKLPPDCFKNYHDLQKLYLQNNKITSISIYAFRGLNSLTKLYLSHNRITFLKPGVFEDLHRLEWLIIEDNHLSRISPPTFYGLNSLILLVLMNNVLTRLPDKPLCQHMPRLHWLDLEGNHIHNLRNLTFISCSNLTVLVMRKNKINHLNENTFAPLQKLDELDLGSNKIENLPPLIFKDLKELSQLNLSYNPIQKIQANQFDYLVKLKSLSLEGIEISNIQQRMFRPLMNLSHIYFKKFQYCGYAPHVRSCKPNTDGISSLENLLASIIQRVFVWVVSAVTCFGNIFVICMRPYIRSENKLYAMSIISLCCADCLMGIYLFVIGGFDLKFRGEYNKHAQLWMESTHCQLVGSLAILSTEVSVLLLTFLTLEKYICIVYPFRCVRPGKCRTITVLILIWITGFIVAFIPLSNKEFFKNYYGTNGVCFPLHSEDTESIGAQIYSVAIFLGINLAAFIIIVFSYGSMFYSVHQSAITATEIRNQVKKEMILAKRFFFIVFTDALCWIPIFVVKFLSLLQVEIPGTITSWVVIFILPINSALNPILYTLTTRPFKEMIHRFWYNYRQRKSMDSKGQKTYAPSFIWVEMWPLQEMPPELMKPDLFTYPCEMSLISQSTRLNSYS
Assay: cell-based or functional assay

B1: SEQ ID NO: 1 (peptide)
peptide: Ac-LEGREKVRAQI[Aib]IEGMSKWSKRKK-NH2
SMILES: CC[C@H](C)[C@H](NC(=O)[C@H](CCC(N)=O)NC(=O)[C@H](C)NC(=O)[C@H](CCCNC(=N)N)NC(=O)[C@@H](NC(=O)[C@H](CCCCN)NC(=O)[C@H](CCC(=O)O)NC(=O)[C@H](CCCNC(=N)N)NC(=O)CNC(=O)[C@H](CCC(=O)O)NC(=O)[C@H](CC(C)C)NC(C)=O)C(C)C)C(=O)NC(C)(C)C(=O)N[C@H](C(=O)N[C@@H](CCC(=O)O)C(=O)NCC(=O)N[C@@H](CCSC)C(=O)N[C@@H](CO)C(=O)N[C@@H](CCCCN)C(=O)N[C@@H](Cc1c[nH]c2ccccc12)C(=O)N[C@@H](CO)C(=O)N[C@@H](CCCCN)C(=O)N[C@@H](CCCNC(=N)N)C(=O)N[C@@H](CCCCN)C(=O)N[C@@H](CCCCN)C(N)=O)[C@@H](C)CC
cAMP assay in OVCAR 5 cells EC50: 42.9 nM
cAMP assay in OVCAR 5 cells Emax: 91%

B2: SEQ ID NO: 55 (peptide)
peptide: Ac-LEGREKVRAQI[Aib][Aib]EG[Nle]SRWS[Aib]RRR-NH2
SMILES: CCCC[C@H](NC(=O)CNC(=O)[C@H](CCC(=O)O)NC(=O)C(C)(C)NC(=O)C(C)(C)NC(=O)[C@@H](NC(=O)[C@H](CCC(N)=O)NC(=O)[C@H](C)NC(=O)[C@H](CCCNC(=N)N)NC(=O)[C@@H](NC(=O)[C@H](CCCCN)NC(=O)[C@H](CCC(=O)O)NC(=O)[C@H](CCCNC(=N)N)NC(=O)CNC(=O)[C@H](CCC(=O)O)NC(=O)[C@H](CC(C)C)NC(C)=O)C(C)C)[C@@H](C)CC)C(=O)N[C@@H](CO)C(=O)N[C@@H](CCCNC(=N)N)C(=O)N[C@@H](Cc1c[nH]c2ccccc12)C(=O)N[C@@H](CO)C(=O)NC(C)(C)C(=O)N[C@@H](CCCNC(=N)N)C(=O)N[C@@H](CCCNC(=N)N)C(=O)N[C@@H](CCCNC(=N)N)C(N)=O
cAMP assay in OVCAR 5 cells EC50: 4.9 nM
cAMP assay in OVCAR 5 cells Emax: 88%

B4: SEQ ID NO: 5 (peptide)
peptide: Ac-LEGREKVRAK(Ac)I[Aib][Aib]EG[Nle]STWS[Aib]RKK(Ac)-NH2
SMILES: CCCC[C@H](NC(=O)CNC(=O)[C@H](CCC(=O)O)NC(=O)C(C)(C)NC(=O)C(C)(C)NC(=O)[C@@H](NC(=O)[C@H](CCCCNC(C)=O)NC(=O)[C@H](C)NC(=O)[C@H](CCCNC(=N)N)NC(=O)[C@@H](NC(=O)[C@H](CCCCN)NC(=O)[C@H](CCC(=O)O)NC(=O)[C@H](CCCNC(=N)N)NC(=O)CNC(=O)[C@H](CCC(=O)O)NC(=O)[C@H](CC(C)C)NC(C)=O)C(C)C)[C@@H](C)CC)C(=O)N[C@@H](CO)C(=O)N[C@H](C(=O)N[C@@H](Cc1c[nH]c2ccccc12)C(=O)N[C@@H](CO)C(=O)NC(C)(C)C(=O)N[C@@H](CCCNC(=N)N)C(=O)N[C@@H](CCCCN)C(=O)N[C@@H](CCCCNC(C)=O)C(N)=O)[C@@H](C)O
cAMP assay in OVCAR 5 cells EC50: 7.4 nM
cAMP assay in OVCAR 5 cells Emax: 98%

B5: SEQ ID NO: 6 (peptide)
peptide: H-LEGREKVRAQI[Aib]IEGMSKWSKRKK-NH2
SMILES: CC[C@H](C)[C@H](NC(=O)[C@H](CCC(N)=O)NC(=O)[C@H](C)NC(=O)[C@H](CCCNC(=N)N)NC(=O)[C@@H](NC(=O)[C@H](CCCCN)NC(=O)[C@H](CCC(=O)O)NC(=O)[C@H](CCCNC(=N)N)NC(=O)CNC(=O)[C@H](CCC(=O)O)NC(=O)[C@@H](N)CC(C)C)C(C)C)C(=O)NC(C)(C)C(=O)N[C@H](C(=O)N[C@@H](CCC(=O)O)C(=O)NCC(=O)N[C@@H](CCSC)C(=O)N[C@@H](CO)C(=O)N[C@@H](CCCCN)C(=O)N[C@@H](Cc1c[nH]c2ccccc12)C(=O)N[C@@H](CO)C(=O)N[C@@H](CCCCN)C(=O)N[C@@H](CCCNC(=N)N)C(=O)N[C@@H](CCCCN)C(=O)N[C@@H](CCCCN)C(N)=O)[C@@H](C)CC
cAMP assay in OVCAR 5 cells EC50: 46.3 nM
cAMP assay in OVCAR 5 cells Emax: 97%

B8: SEQ ID NO: 51 (peptide)
peptide: Ac-LEGREKVRAQI[Aib][Aib]EG[Nle]STFS[Aib]RKK-NH2
SMILES: CCCC[C@H](NC(=O)CNC(=O)[C@H](CCC(=O)O)NC(=O)C(C)(C)NC(=O)C(C)(C)NC(=O)[C@@H](NC(=O)[C@H](CCC(N)=O)NC(=O)[C@H](C)NC(=O)[C@H](CCCNC(=N)N)NC(=O)[C@@H](NC(=O)[C@H](CCCCN)NC(=O)[C@H](CCC(=O)O)NC(=O)[C@H](CCCNC(=N)N)NC(=O)CNC(=O)[C@H](CCC(=O)O)NC(=O)[C@H](CC(C)C)NC(C)=O)C(C)C)[C@@H](C)CC)C(=O)N[C@@H](CO)C(=O)N[C@H](C(=O)N[C@@H](Cc1ccccc1)C(=O)N[C@@H](CO)C(=O)NC(C)(C)C(=O)N[C@@H](CCCNC(=N)N)C(=O)N[C@@H](CCCCN)C(=O)N[C@@H](CCCCN)C(N)=O)[C@@H](C)O
cAMP assay in OVCAR 5 cells EC50: 18.6 nM
cAMP assay in OVCAR 5 cells Emax: 98%

B9: SEQ ID NO: 52 (peptide)
peptide: Ac-LEGREKVRAQI[Aib][Aib]EG[Nle]SQWS[Aib]RRR-NH2
SMILES: CCCC[C@H](NC(=O)CNC(=O)[C@H](CCC(=O)O)NC(=O)C(C)(C)NC(=O)C(C)(C)NC(=O)[C@@H](NC(=O)[C@H](CCC(N)=O)NC(=O)[C@H](C)NC(=O)[C@H](CCCNC(=N)N)NC(=O)[C@@H](NC(=O)[C@H](CCCCN)NC(=O)[C@H](CCC(=O)O)NC(=O)[C@H](CCCNC(=N)N)NC(=O)CNC(=O)[C@H](CCC(=O)O)NC(=O)[C@H](CC(C)C)NC(C)=O)C(C)C)[C@@H](C)CC)C(=O)N[C@@H](CO)C(=O)N[C@@H](CCC(N)=O)C(=O)N[C@@H](Cc1c[nH]c2ccccc12)C(=O)N[C@@H](CO)C(=O)NC(C)(C)C(=O)N[C@@H](CCCNC(=N)N)C(=O)N[C@@H](CCCNC(=N)N)C(=O)N[C@@H](CCCNC(=N)N)C(N)=O
cAMP assay in OVCAR 5 cells EC50: 9.15 nM
cAMP assay in OVCAR 5 cells Emax: 94%

Continued, values first:

cAMP assay in OVCAR 5 cells EC50: 76.2 nM
cAMP assay in OVCAR 5 cells Emax: 75%
B3: SEQ ID NO: 53 (peptide)
peptide: Ac-LEGREKVRAQI[Aib][Aib]EG[Nle]STYS[Aib]RKK-NH2
SMILES: CCCC[C@H](NC(=O)CNC(=O)[C@H](CCC(=O)O)NC(=O)C(C)(C)NC(=O)C(C)(C)NC(=O)[C@@H](NC(=O)[C@H](CCC(N)=O)NC(=O)[C@H](C)NC(=O)[C@H](CCCNC(=N)N)NC(=O)[C@@H](NC(=O)[C@H](CCCCN)NC(=O)[C@H](CCC(=O)O)NC(=O)[C@H](CCCNC(=N)N)NC(=O)CNC(=O)[C@H](CCC(=O)O)NC(=O)[C@H](CC(C)C)NC(C)=O)C(C)C)[C@@H](C)CC)C(=O)N[C@@H](CO)C(=O)N[C@H](C(=O)N[C@@H](Cc1ccc(O)cc1)C(=O)N[C@@H](CO)C(=O)NC(C)(C)C(=O)N[C@@H](CCCNC(=N)N)C(=O)N[C@@H](CCCCN)C(=O)N[C@@H](CCCCN)C(N)=O)[C@@H](C)O

cAMP assay in OVCAR 5 cells EC50: 4.42 nM
cAMP assay in OVCAR 5 cells Emax: 90%
B6: SEQ ID NO: 50 (peptide)
peptide: Ac-LEGREKVRAQI[Aib][Aib]EG[Nle]STWS[Aib]RRR-NH2
SMILES: CCCC[C@H](NC(=O)CNC(=O)[C@H](CCC(=O)O)NC(=O)C(C)(C)NC(=O)C(C)(C)NC(=O)[C@@H](NC(=O)[C@H](CCC(N)=O)NC(=O)[C@H](C)NC(=O)[C@H](CCCNC(=N)N)NC(=O)[C@@H](NC(=O)[C@H](CCCCN)NC(=O)[C@H](CCC(=O)O)NC(=O)[C@H](CCCNC(=N)N)NC(=O)CNC(=O)[C@H](CCC(=O)O)NC(=O)[C@H](CC(C)C)NC(C)=O)C(C)C)[C@@H](C)CC)C(=O)N[C@@H](CO)C(=O)N[C@H](C(=O)N[C@@H](Cc1c[nH]c2ccccc12)C(=O)N[C@@H](CO)C(=O)NC(C)(C)C(=O)N[C@@H](CCCNC(=N)N)C(=O)N[C@@H](CCCNC(=N)N)C(=O)N[C@@H](CCCNC(=N)N)C(N)=O)[C@@H](C)O

cAMP assay in OVCAR 5 cells EC50: 22 nM
B7: SEQ ID NO: 54 (peptide)
peptide: Ac-LEGREKVRAQI[Aib][Aib]EGQSTWS[Aib]RKK-NH2
SMILES: CC[C@H](C)[C@H](NC(=O)[C@H](CCC(N)=O)NC(=O)[C@H](C)NC(=O)[C@H](CCCNC(=N)N)NC(=O)[C@@H](NC(=O)[C@H](CCCCN)NC(=O)[C@H](CCC(=O)O)NC(=O)[C@H](CCCNC(=N)N)NC(=O)CNC(=O)[C@H](CCC(=O)O)NC(=O)[C@H](CC(C)C)NC(C)=O)C(C)C)C(=O)NC(C)(C)C(=O)NC(C)(C)C(=O)N[C@@H](CCC(=O)O)C(=O)NCC(=O)N[C@@H](CCC(N)=O)C(=O)N[C@@H](CO)C(=O)N[C@H](C(=O)N[C@@H](Cc1c[nH]c2ccccc12)C(=O)N[C@@H](CO)C(=O)NC(C)(C)C(=O)N[C@@H](CCCNC(=N)N)C(=O)N[C@@H](CCCCN)C(=O)N[C@@H](CCCCN)C(N)=O)[C@@H](C)O
